These results are taken from patent US20250152729A1 (CANCER RESEARCH TECHNOLOGY, published 2025).

For experiment [1], the target named is T1, human SEMA4A expressed on cells (UniProt ID Q9H3S1, isoform 1) (human, UniProt Q9H3S1 33-761).
T1 sequence: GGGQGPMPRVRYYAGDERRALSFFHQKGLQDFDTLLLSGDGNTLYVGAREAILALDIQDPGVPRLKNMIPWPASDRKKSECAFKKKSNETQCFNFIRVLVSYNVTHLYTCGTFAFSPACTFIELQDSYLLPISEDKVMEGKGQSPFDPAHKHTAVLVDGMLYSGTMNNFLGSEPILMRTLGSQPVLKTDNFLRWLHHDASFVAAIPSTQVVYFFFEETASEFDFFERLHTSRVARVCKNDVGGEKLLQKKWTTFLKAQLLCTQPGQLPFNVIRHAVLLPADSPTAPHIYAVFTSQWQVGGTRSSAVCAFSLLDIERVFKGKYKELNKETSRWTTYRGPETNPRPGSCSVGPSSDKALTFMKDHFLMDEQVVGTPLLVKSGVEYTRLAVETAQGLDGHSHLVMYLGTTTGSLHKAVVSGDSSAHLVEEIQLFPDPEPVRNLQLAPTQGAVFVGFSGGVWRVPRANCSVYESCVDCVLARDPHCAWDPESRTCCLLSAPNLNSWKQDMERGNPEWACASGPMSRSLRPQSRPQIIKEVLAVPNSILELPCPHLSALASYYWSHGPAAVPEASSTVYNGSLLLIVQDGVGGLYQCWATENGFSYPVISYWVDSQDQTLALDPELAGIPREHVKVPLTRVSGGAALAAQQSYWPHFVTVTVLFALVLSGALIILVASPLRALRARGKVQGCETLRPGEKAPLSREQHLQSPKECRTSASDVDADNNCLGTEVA
In words: cell-based or functional assay.

Experiment [2] concerns the target T1, human SEMA4A expressed on cells …. In words: Mirrorball epitope competition on MM.1S cells; competitor: fixed 5E3 mouse IgG1. From the text:
The 5E3 epitope competition assay assessed the ability of the un-purified IgGs expressed in a human IgG1 backbone to compete for binding to the mouse 5E3 epitope on human SEMA4A endogenously expressed by MM.1S cells, a human multiple myeloma cell line. The assay utilised a secondary-Alexa Fluor 647 conjugate, 5E3 expressed in a mouse IgG1 (A) backbone (BioLegend®, San Diego, CA, 148402) and a Mirrorball fluorescence cytometer (SPT Labtech, UK). Binding of 5E3 mouse IgG1 to MM.1S cells was measured via an anti-mouse secondary labelled with Alexa Fluor 647 (Invitrogen, A21235) in the presence of a single concentration of each un-purified human IgG1. […] 10 μl undiluted un-purified IgG, contained in Expi293 expression medium (Gibco, UK, A1435101), were added to the assay plate (Greiner Bio-one, UK, 781906), followed by 10 ul of 1.2 nM 5E3 mouse IgG1 and 20 μl MM.1S cell suspension containing 1,500 cells that was spiked with 4 nM anti-mouse Alexa Fluor 647. The assay plate was incubated for 4 hours at room temperature, in the dark prior to reading on a Mirrorball fluorescence cytometer (SPT Labtech, UK) using a 640 nm laser for excitation and measuring emission in the FL-4 channel (650-690 nm). Data was analysed as Count x median mean intensity (x FLU). All dilutions were performed in Hanks' balanced salt solution (Sigma, UK; cat: H8264) containing 0.1% (w/V) BSA (Sigma, UK; cat: A9576). Maximum binding signal was determined by analysing the binding of 5E3 mouse IgG1 to MM.1S cells in the absence of competitor un-purified human IgG1. Background binding signal was determined by analysing the fluorescence generated in the absence of 5E3 mouse IgG1. Data were analysed and graphed using GraphPad Prism software (GraphPad Software, Inc, La Jolla, CA).
Hits from the primary screening were re-formatted into the human Alya IgG1 vector and re-expressed and purified as described in section 4.1. 5E3 epitope competition assay methods are described in section 3.2 and were used to test purified human Alya IgG1s. The purified human Alya IgG1s were diluted to a 4× stock and then serially diluted using 4-fold dilutions to generate a 10 point concentration response curve.

In experiment [3] the target is T2, mouse SEMA4A expressed on expi293 cells (UniProt ID Q62178) (mouse, UniProt Q62178 33-760).
T2 construct: Transient transfection in expi293 cells
T2 sequence: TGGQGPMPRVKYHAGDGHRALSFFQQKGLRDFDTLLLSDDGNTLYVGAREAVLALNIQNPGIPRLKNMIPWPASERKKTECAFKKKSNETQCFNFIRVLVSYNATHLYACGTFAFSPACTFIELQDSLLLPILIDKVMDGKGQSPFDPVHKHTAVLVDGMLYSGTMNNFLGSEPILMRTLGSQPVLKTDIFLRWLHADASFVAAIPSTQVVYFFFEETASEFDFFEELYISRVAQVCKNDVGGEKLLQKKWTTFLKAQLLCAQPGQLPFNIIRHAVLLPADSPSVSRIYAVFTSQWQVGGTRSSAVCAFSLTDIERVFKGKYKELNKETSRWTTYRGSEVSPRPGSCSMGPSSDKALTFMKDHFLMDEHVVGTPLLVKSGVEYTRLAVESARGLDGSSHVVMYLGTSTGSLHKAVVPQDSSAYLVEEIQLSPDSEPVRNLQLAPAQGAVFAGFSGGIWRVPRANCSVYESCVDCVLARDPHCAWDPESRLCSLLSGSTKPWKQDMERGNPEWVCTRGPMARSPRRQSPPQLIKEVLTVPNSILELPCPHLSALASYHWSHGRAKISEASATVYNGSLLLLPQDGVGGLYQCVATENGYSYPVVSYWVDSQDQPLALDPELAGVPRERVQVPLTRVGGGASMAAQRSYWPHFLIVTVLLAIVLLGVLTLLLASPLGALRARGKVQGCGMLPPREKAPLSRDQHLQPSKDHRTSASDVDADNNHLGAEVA
The experiment is described as follows: Mirrorball direct binding, dilution series on expi293 cells transiently transfected with mouse SEMA4A, anti-human Alexa Fluor 647.

B1: 5Hg5-5Lg2 human Alya IgG1 (antibody, V domains shown)
VH: EVQLVQSGAEVKKPGESLRISCKGSGYSFTDYWMHWVRQMPGKGLEWMGAIDTSDSYTSYNQKFKGQVTISADKSISTAYLQWSSLKASDTAMYYCARDYGNFYYYAMDYWGQGTLVTVSS
VL: QAVVTQEPSLTVSPGGTVTLTCRSSTGAVTTSNYANWFQQKPGQAPRTLIYGTNNRAPWTPARFSGSLLGGKAALTLLGAQPEDEAEYYCALWYSNHWVFGGGTKLTVL
notes: Humanised 5E3; human IgG1 Alya constant (239iCys, S442C, EU), lambda light chain; purified, unconjugated; also called 5HE5/5Lg2
As to B1, in experiment [1], the “IC50 (pM), Fab-ZAP cell kill, NCI-H929” value amounted to 167 pM and the “Max % Cell Kill, Fab-ZAP, NCI-H929” value was 51%. In experiment [2], this molecule returned a half-maximal inhibitory concentration (IC50) of 14.9 nM. For the same molecule, in experiment [3], the binding result is given as “binds”.

B2: 5Hg4-5Lg4 human Alya IgG1 (antibody, V domains shown)
VH: QVQLVQSGSELKKPGASVKVSCKASGYTFTDYWMHWVRQAPGQGLEWMGAIDTSDSYTSYNQKFKGRFVFSLDTSVSTAYLQICSLKAEDTAVYYCARDYGNFYYYAMDYWGQGTLVTVSS
VL: QSALTQPPSVSGSPGQSVTISCRSSTGAVTTSNYANWYQQPPGTAPKLMIYGTNNRAPGVPDRFSGSKSGNTASLTISGLQAEDEADYYCALWYSNHWVFGGGTKLTVL
notes: Humanised 5E3; human IgG1 Alya constant (239iCys, S442C, EU), lambda light chain; purified, unconjugated
On to B2, for which, in experiment [1], the “IC50 (pM), Fab-ZAP cell kill, NCI-H929” value is 119 pM and the “Max % Cell Kill, Fab-ZAP, NCI-H929” value came out at 33%. The molecule further registered an IC50 in experiment [2] of 45.5 nM. Besides, in experiment [3], the binding result is “binds”.

B3: 5Hg4-5Lg1 human Alya IgG1 (antibody, V domains shown)
VH: QVQLVQSGSELKKPGASVKVSCKASGYTFTDYWMHWVRQAPGQGLEWMGAIDTSDSYTSYNQKFKGRFVFSLDTSVSTAYLQICSLKAEDTAVYYCARDYGNFYYYAMDYWGQGTLVTVSS
VL: QAVVTQEPSLTVSPGGTVTLTCRSSTGAVTTSNYANWFQQKPGQAPRTLIYGTNNRAPWTPARFSGSLLGGKAALTLSGAQPEDEAEYYCALWYSNHWVFGGGTKLTVL
notes: as for B2
In the case of B3, in experiment [1], the “IC50 (pM), Fab-ZAP cell kill, NCI-H929” value came out at 122 pM and the “Max % Cell Kill, Fab-ZAP, NCI-H929” value is 56%. In experiment [2], this molecule came in with an IC50 of 9.7 nM. For the same molecule, in experiment [3], the binding result is reported as “binds”.

B4: 5Hg4-5Lg2 human Alya IgG1 (antibody, V domains shown)
VH: QVQLVQSGSELKKPGASVKVSCKASGYTFTDYWMHWVRQAPGQGLEWMGAIDTSDSYTSYNQKFKGRFVFSLDTSVSTAYLQICSLKAEDTAVYYCARDYGNFYYYAMDYWGQGTLVTVSS
VL: QAVVTQEPSLTVSPGGTVTLTCRSSTGAVTTSNYANWFQQKPGQAPRTLIYGTNNRAPWTPARFSGSLLGGKAALTLLGAQPEDEAEYYCALWYSNHWVFGGGTKLTVL
notes: as for B2
In the case of B4, in experiment [1], the “IC50 (pM), Fab-ZAP cell kill, NCI-H929” value is 151 pM and the “Max % Cell Kill, Fab-ZAP, NCI-H929” value was determined as 58%. In experiment [2], this molecule came in with an IC50 of 8.4 nM. The binding result in experiment [3] was “binds”.

B5: 5Hg2-5Lg6 human Alya IgG1 (antibody, V domains shown)
VH: QVQLVQSGAEVKKPGASVKVSCKASGYTFTDYWMHWVRQAPGQRLEWMGAIDTSDSYTSYNQKFKGRVTITRDTSASTAYMELSSLRSEDTAVYYCARDYGNFYYYAMDYWGQGTLVTVSS
VL: SYELTQPSSVSVSPGQTARITCRSSTGAVTTSNYANWFQQKPGQAPVLVIYGTNNRAPGIPERFSGSSSGTTVTLTISGAQVEDEADYYCALWYSNHWVFGGGTKLTVL
notes: as for B2
For the molecule B5, in experiment [1], the “IC50 (pM), Fab-ZAP cell kill, NCI-H929” value was determined as 42 pM and the “Max % Cell Kill, Fab-ZAP, NCI-H929” value turned out to be 22%. Moreover, the IC50 in experiment [2] was determined as 71.8 nM. The binding result in experiment [3] is “binds”.
